Laboratory results from patent US20090246142.

Assays:
[1] = tested on: T1, TAMRA-(Ahx)SRVGEEEHVYSFPNKQKSAEC-CONH2 (unphosphorylated Abl substrate derived from paxillin) on nanoparticles (Y-Abl TSACs)
T1 sequence: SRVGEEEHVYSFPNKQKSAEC

[2] = tested on: MMP-2 substrate G-K(TAMRA)-G-P-L-G-V-R-G-C-CONH2 with 20 kDa PEG, on ligand (biotin) TSACs (Example 3)
[3] = tested on: MMP-7 substrate G-K(TAMRA)-G-V-P-L-S-L-T-M-G-C-CONH2 with 20 kDa PEG, on receptor (NeutrAvidin) TSACs (Example 3)
[4] = tested on: MMP-7-MMP-2 tandem substrate TAMRA-G-K-G-V-P-L-S-L-T-M-Ahx-G-P-L-G-V-R-G-C-CONH2 with 20 kDa PEG, on ligand (biotin) TSACs (Example 3)
[5] = tested on: MMP-2 cleavable peptide substrate KGPLGVRGC, PEG on the lysine, on biotin and NeutrAvidin nanoparticles (Example 1)

Chain of recombinant catalytic domain of matrix metalloproteinase-2 (MMP-2; Biomol) (chain, as listed by the source): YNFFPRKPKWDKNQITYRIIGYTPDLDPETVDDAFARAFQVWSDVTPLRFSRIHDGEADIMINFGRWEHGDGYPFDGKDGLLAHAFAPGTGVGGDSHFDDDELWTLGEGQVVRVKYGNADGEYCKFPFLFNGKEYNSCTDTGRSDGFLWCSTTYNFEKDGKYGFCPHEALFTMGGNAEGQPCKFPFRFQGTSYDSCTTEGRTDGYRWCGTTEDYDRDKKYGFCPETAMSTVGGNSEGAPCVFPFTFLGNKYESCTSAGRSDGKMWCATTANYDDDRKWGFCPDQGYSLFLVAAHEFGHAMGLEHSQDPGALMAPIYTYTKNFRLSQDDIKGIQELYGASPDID

Substance | TSAC assembly in DLS (hydrodynamic radius) [1] | lowest kinase amount giving quantifiable T2 relaxation enhancement (MRI) [1] | TSAC assembly in DLS [2] | TSAC assembly in DLS [3] | hydrodynamic radius increase in DLS [4] | TSAC assembly (extinction at 600 nm, AFM) [5] | lowest MMP-2 concentration detected by T2 relaxation (MRI) [5]
Abl kinase (New England Biolabs) | Abl kinase rapidly directed assembly in solutions containing Y-Abl TSACs with SH2 TSACs | as little as 11 fentomoles of added kinase (110 pM kinase concentrations=0.05 U/µl | – | – | – | – | –
recombinant catalytic domain of matrix metalloproteinase-2 (MMP-2; Biomol) | – | – | Addition of 0.4 µg MMP-2 actuates TSAC assembly, while 0.4 µg MMP-7 or no enzyme is insufficient | addition of 0.4 µg MMP-7 induces assembly, while 0.4 µg MMP-2 cannot | Hydrodynamic radii increased more than 5-fold in the presence of either enzyme or both enzymes | The TSACs with the scrambled peptide exhibit markedly decreased assembly compared to the specific peptide sequence | TSACs at a 10 pM concentration were sensitive to at least 170 ng/ml (9.4 U/ml) of MMP-2
